Assay results taken from PMC3334367 (Molecular Cell, 2012).

Biological target: T1, GST-RNC (GST fused N-terminal RNC domain of Kog1, amino acids 1-637) (yeast, UniProt P38873 1-637)
T1 sequence (looked up): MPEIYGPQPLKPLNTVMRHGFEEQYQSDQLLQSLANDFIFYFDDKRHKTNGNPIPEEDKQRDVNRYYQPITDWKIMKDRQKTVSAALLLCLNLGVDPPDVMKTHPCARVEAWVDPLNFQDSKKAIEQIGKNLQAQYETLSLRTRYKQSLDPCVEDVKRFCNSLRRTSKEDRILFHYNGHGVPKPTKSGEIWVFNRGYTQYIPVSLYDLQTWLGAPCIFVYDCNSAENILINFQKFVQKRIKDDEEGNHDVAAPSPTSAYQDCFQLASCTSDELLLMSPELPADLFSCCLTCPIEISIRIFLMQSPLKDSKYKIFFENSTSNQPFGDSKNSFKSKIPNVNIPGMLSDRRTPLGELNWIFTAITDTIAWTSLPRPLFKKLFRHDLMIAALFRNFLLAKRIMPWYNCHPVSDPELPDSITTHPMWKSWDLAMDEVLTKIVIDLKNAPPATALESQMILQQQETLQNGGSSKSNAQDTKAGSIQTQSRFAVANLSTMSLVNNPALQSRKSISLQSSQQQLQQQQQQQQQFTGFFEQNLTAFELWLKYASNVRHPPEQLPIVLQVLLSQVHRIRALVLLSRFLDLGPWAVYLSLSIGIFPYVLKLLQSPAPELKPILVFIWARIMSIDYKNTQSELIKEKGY
Experiment: pull-down

B1: His tagged recombinant Tap42 (natural protein, yeast, UniProt Q04372 1-366, looked up)
chain: MASVTEQFNDIISLYSTKLEHTSLRQDSPEYQGLLLSTIKKLLNLKTAIFDRLALFSTNETIDDVSTASIKFLAVDYYLGLLISRRQSNDSDVAQRQSMKLIYLKKSVESFINFLTLLQDYKLLDPLVGEKLGNFKDRYNPQLSELYAQPKNNKDLSGAQLKRKEKIELFQRNKEISTKLHCLELELKNNDEDHDHDELLRELYLMRLHHFSLDTINNIEQNLFECEMLSNFLKNSVHEVKSSGTQIRKESNDDDSTGFTDKLENINKPLIDKKGQVLRNFTLVDKRQQLQQKVRGYGQYGPTMSVEEFLDKEFEEGRVLQGGEEPEQAPDEENMDWQDRETYKAREWDEFKESHAKGSGNTMNRG
Q: Does B1 bind?
A: Result: binds

B2: His tagged recombinant Rho1 (natural protein, yeast, UniProt P06780 1-209, looked up)
chain: MSQQVGNSIRRKLVIVGDGACGKTCLLIVFSKGQFPEVYVPTVFENYVADVEVDGRRVELALWDTAGQEDYDRLRPLSYPDSNVVLICFSIDLPDSLENVQEKWIAEVLHFCQGVPIILVGCKVDLRNDPQTIEQLRQEGQQPVTSQEGQSVADQIGATGYYECSAKTGYGVREVFEAATRASLMGKSKTNGKAKKNTTEKKKKKCVLL
Q: Does B2 bind?
A: Result: binds
